According to the supplement of paper PMC10724198:
± gives the standard deviation of the averaged measurements.

What follows are sequences tested on Saccharomyces cerevisiae (assay: protein stability index of tFT-peptide fusion (C-terminal peptide) (PSI (0-1 scale)); higher = more stable (slower turnover)). Conditions: genetic background: wild type; temperature: 30 C.
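Further: PSI is a weighted mean of sequencing reads over stability bins, variants kept only with over 10 reads, mCherry proximal and sfGFP distal, peptide attached via GGGS linker.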

In order of falling protein stability index:
1. RTLSSFSPGYLF  0.8548 ± 0.0033
2. SAPFGFLFFARL  0.815 ± 0.083
3. RRQPPRDQGTPC  0.795 ± 0.13
4. RTSPRSHVSRSL  0.79 ± 0.056
5. RYFPNRGSGLTY  0.786 ± 0.037
6. RLASGGSAFINL  0.78 ± 0.2
7. RLPPPPPSPFPS  0.778 ± 0.056
8. RPRVCFPHIAGT  0.777 ± 0.11
9. RVFDPSRSTVVE  0.774 ± 0.018
10. RMINRLEKKHTK  0.771 ± 0.098
11. RQFLSLLPCSLP  0.771 ± 0.094
12. SAGVIVPGRAGR  0.761 ± 0.082
13. RRNISRQNKKKR  0.76 ± 0.11
14. RQHPPLPSFPSP  0.759 ± 0.06
15. RVETYQKMTSRL  0.757 ± 0.0092
16. RWVEGVWGVWCG  0.757 ± 0.042
17. RKSIGTAYRMPR  0.755 ± 0.081
18. RRRKPAEHTPPW  0.755 ± 0.1
19. RSGAAREVSGGA  0.7546 ± 0.0052
20. RQQRKIYTDKQD  0.754 ± 0.0057
21. RQPPPRSPPSYL  0.75 ± 0.063
22. RSAMRLFEPFSP  0.745 ± 0.19
23. RYCESKVFKERE  0.742 ± 0.049
24. RPGYDRNRTGMI  0.738 ± 0.073
25. SAPRDLYIHFSR  0.7371 ± 0.0014
26. RYLVLPDLCPIS  0.736 ± 0.1
27. RLVRVTSIKGKR  0.735 ± 0.054
28. RSSARPQNRPLP  0.733 ± 0.035
29. RRWGLIGVMSYL  0.732 ± 0.089
30. RQKAQESNTQPP  0.73 ± 0.044
31. RVVGGGGEAWRE  0.73 ± 0.033
32. RTLYEAAPLFVG  0.729 ± 0.051
33. RWSVLSRSCSSY  0.729 ± 0.034
34. RKTEGGGEGLAV  0.728 ± 0.035
35. RNTKGRIKKKKE  0.728 ± 0.039
36. RVRGGGPRESGQ  0.728 ± 0.024
37. RNTRAVREHRNV  0.726 ± 0.0092
38. RPASPRSPIVSR  0.726 ± 0.024
39. RQLVNKKIKEKK  0.7258 ± 0.0051
40. RLPPPPPPPSTP  0.725 ± 0.053
41. RPWAKGTGGRCY  0.723 ± 0.21
42. RSFVSRGSILWF  0.723 ± 0.13
43. RVSAPPSFHGSF  0.722 ± 0.014
44. RKEQRTERKSQK  0.721 ± 0.066
45. RVCFVTNLVDVT  0.721 ± 0.096
46. RVPDNYLKWSYI  0.719 ± 0.051
47. RRLFGLGWDVKI  0.7177 ± 0.0034
48. RPSARSLVSPSP  0.716 ± 0.025
49. RNVALPSRKAQY  0.715 ± 0.016
50. RSSTYGIMYSYR  0.715 ± 0.035
51. RLCSPVSVLLPP  0.713 ± 0.047
52. RLTSPVLLFPLP  0.713 ± 0.013
53. RREVKKNGNKRN  0.713 ± 0.073
54. RRPPPPRGPSPP  0.713 ± 0.02
55. RLPLSSPLRFSL  0.712 ± 0.06
56. RRGKIETKESKK  0.712 ± 0.044
57. RKKYPLMINGKR  0.711 ± 0.0073
58. RLGWGGVGGAGV  0.711 ± 0.033
59. RLTEVRVTLGSL  0.711 ± 0.082
60. RPPLSPLLYPPP  0.7115 ± 0.0022
61. RVLGGGVLGVLV  0.711 ± 0.0099
62. RVLSCAFSTLWA  0.711 ± 0.12
63. RPFATVLRTRAV  0.71 ± 0.0077
64. RKKIIRDKLNTS  0.709 ± 0.051
65. RSPPPLPSPPSH  0.709 ± 0.035
66. SAGGCSVMAGNG  0.709 ± 0.11
67. RPKTLGNAREEG  0.708 ± 0.039
68. RNSTDENDCGRK  0.7062 ± 0.00038
69. RVRGDRLGGRGT  0.706 ± 0.043
70. RNKKKKNKNEKE  0.705 ± 0.0073
71. RTHTAALCRTHS  0.7047 ± 0.0057
72. RSGRCWSFPFSV  0.703 ± 0.026
73. RKNQNAWMPALQ  0.702 ± 0.1
74. RNKNNKKNKKIR  0.702 ± 0.1
75. RVMGRHIGRPRE  0.702 ± 0.015
76. RVGRGGGRETRG  0.699 ± 0.031
77. RPHAFHCDPSSP  0.698 ± 0.11
78. RSPPPPPGPRFP  0.698 ± 0.019
79. RRVPVVSRSGGG  0.697 ± 0.043
80. RSLSLAPSFPLP  0.697 ± 0.0086
81. SAPLRHTSSSPS  0.697 ± 0.043
82. RSPPTQGQTPTT  0.696 ± 0.028
83. RKKREKNKKRKE  0.695 ± 0.049
84. RPLPGAFLLFRS  0.695 ± 0.021
85. RLPPLLVPFPSS  0.694 ± 0.015
86. RNQQQENNKQSK  0.694 ± 0.016
87. RPPFPLRTSPLV  0.694 ± 0.037
88. RPPPALWPPPSP  0.694 ± 0.027
89. RPRQAAAQGGAR  0.694 ± 0.036
90. RTLHKKRLLAHR  0.693 ± 0.041
91. RLGNPPPFSTLG  0.691 ± 0.075
92. RVWAGGGGGDGC  0.691 ± 0.021
93. RPAPASAFPHSP  0.69 ± 0.045
94. RRAKMSWCCKKY  0.69 ± 0.0098
95. RSHRGSPCPLVP  0.69 ± 0.025
96. RVGRNLRVGGES  0.69 ± 0.008
97. RYTKYKSYPYDI  0.6897 ± 0.0023
98. RKKENKIANRKI  0.6893 ± 0.00094
99. RPFAPLPPPPSM  0.689 ± 0.025
100. RSPINSRRGGVV  0.689 ± 0.0097
101. RSSIGNLCCRLL  0.6884 ± 0.0034
102. RPKWLCAIATAD  0.687 ± 0.023
103. RPYLSPPPPTSP  0.687 ± 0.093
104. RSEGEGGKGKRE  0.687 ± 0.019
105. RTRSVPWEPRYF  0.687 ± 0.03
106. RTRLPYVPAPAP  0.686 ± 0.0092
107. RLIPPQTAHEFP  0.685 ± 0.028
108. RLLVSDSLLLGC  0.684 ± 0.014
109. RRCRLNPPIDST  0.683 ± 0.088
110. RRFKIDKNKIKL  0.683 ± 0.018
111. RSYRLRTSRADI  0.683 ± 0.1
112. RVSLREVKAEKN  0.682 ± 0.057
113. SAHPFKSCPIGR  0.682 ± 0.0094
114. RPPRPPTHSPPP  0.68 ± 0.01
115. RQQSIIDNQIGQ  0.6802 ± 0.0061
116. RLPRHLPPAPAL  0.679 ± 0.025
117. RTLAGLLVDSHV  0.679 ± 0.041
118. RVSGYTHPLLSC  0.679 ± 0.079
119. RRRNSTFTNLDT  0.6783 ± 0.0045
120. RKGERRKKKKRR  0.677 ± 0.051
121. RVGHGHRSPTRV  0.677 ± 0.14
122. SAPPSPPLPPPC  0.677 ± 0.067
123. SARGRTRTADPS  0.677 ± 0.048
124. RLFTTVHSLQDV  0.674 ± 0.016
125. RPAVPSPRPPPP  0.674 ± 0.029
126. RLPRRSVGRSTG  0.673 ± 0.078
127. RPELGLCAGDTN  0.673 ± 0.061
128. RTSCEQYERGLM  0.673 ± 0.012
129. RPGGVRVVSIQL  0.672 ± 0.06
130. RPRPKRCGPRSV  0.672 ± 0.052
131. RPYGKQTERYVK  0.672 ± 0.029
132. RRTAVEEWGVGG  0.672 ± 0.12
133. RTVPCCVAENKF  0.672 ± 0.012
134. RLARAPTQPRLS  0.67 ± 0.062
135. RRPPRVYLQLSI  0.67 ± 0.066
136. RKSCKRNERIRK  0.669 ± 0.035
137. RLAVLSLPPHPT  0.6685 ± 0.0037
138. RLNNRVMGHIEA  0.6673 ± 0.0062
139. RRGWVRWRVGAA  0.667 ± 0.074
140. RLKTNKVIIKIK  0.6665 ± 0.0032
141. RPLWVDGPHPSR  0.666 ± 0.1
142. RPPPSPPPIPSP  0.666 ± 0.033
143. RRTEGLATAGRV  0.666 ± 0.072
144. RLLCSETPPTLA  0.665 ± 0.014
145. RLNRSRAVTFRI  0.663 ± 0.019
146. RLLMIFTSKMFM  0.6623 ± 0.0019
147. RNNKMYKYQGNL  0.662 ± 0.083
148. RVRFRVYKGGAL  0.661 ± 0.041
149. RKKEKKERKERK  0.66 ± 0.069
150. RPMKGLSMGSCA  0.66 ± 0.011
151. RMKKYKYELDLN  0.659 ± 0.019
152. RPTGHAPSRALT  0.659 ± 0.062
153. RRMVRLDACASV  0.659 ± 0.041
154. RWGGGKWWRGAE  0.659 ± 0.018
155. RKMNEEKEIRRQ  0.6569 ± 0.0065
156. RNTSQNRIDEKL  0.657 ± 0.014
157. RLEAVLCRRFLR  0.6561 ± 0.0026
158. RLLAGLPLGGGN  0.656 ± 0.051
159. RLPGLTHFLPKI  0.654 ± 0.038
160. RLTKTRNDLRSL  0.654 ± 0.016
161. RSPPAPRFLPAP  0.652 ± 0.049
162. RLRPVLSPHAPI  0.648 ± 0.033
163. RRAKMHSRRSLA  0.648 ± 0.053
164. RPVSQRRRKHIG  0.645 ± 0.064
165. RPLRVLSYVPIH  0.644 ± 0.03
166. RRSLDQSIQAKC  0.643 ± 0.055
167. RWFTFPVPVPFC  0.642 ± 0.036
168. RSISGVNMENVQ  0.639 ± 0.018
169. RRGTRGGGGRER  0.638 ± 0.019
170. RSLDEPCGFFRP  0.637 ± 0.023
171. RWTRFISLTGTG  0.637 ± 0.064
172. RYRSRHHSTYVL  0.635 ± 0.26
173. SACPPIPPPPPP  0.635 ± 0.026
174. RQGMGPKLVKHQ  0.633 ± 0.1
175. SALRGTDMREEV  0.632 ± 0.023
176. RVDALVHLPLRL  0.629 ± 0.03
177. RKSSLVARTGMI  0.623 ± 0.071
178. RKKKKKKRGKNR  0.621 ± 0.043
179. RVYTSAWAPDWR  0.62 ± 0.056
180. RKRWQWGRVRGV  0.617 ± 0.11
181. RKGKKNKKPKKQ  0.612 ± 0.02
182. RLKFHRLVMTGY  0.612 ± 0.031
183. RVGVRGVVVSMG  0.612 ± 0.075
184. RSSPPSPPLLSP  0.611 ± 0.023
185. RPVPVPTALIPS  0.61 ± 0.013
186. RRREGTVPWYIS  0.605 ± 0.057
187. SAKGGVLLIGLF  0.603 ± 0.2
188. RVGTHDRTRAHG  0.601 ± 0.02
189. RPLRRQREVCGA  0.597 ± 0.019
190. RYPPVQPRRAQR  0.593 ± 0.031
191. RSRCYSNIRIFI  0.589 ± 0.048
192. RNYQKAKENMKL  0.585 ± 0.14
193. RYSRVALRPRPP  0.579 ± 0.052
194. RVLLYWRGSGVL  0.577 ± 0.071
195. RVTVWHELTVDC  0.569 ± 0.0083
196. RWCRLGHRWRVV  0.563 ± 0.054
197. RYIKSRMLIIER  0.56 ± 0.049
198. RSSFCILCCLFS  0.557 ± 0.024
199. RSRSELRVFCTS  0.556 ± 0.011
200. RRRSLLLTYSYV  0.541 ± 0.055
201. RLFFSRSVRSFF  0.529 ± 0.017
202. RRVGSGGLEGIG  0.528 ± 0.019
